± gives the standard deviation of the averaged measurements.
Columns and labels:
[1] = system: VchCAST RNA-guided transposition machinery (E. coli BL21(DE3) host, lacZ target); assay: relative integration efficiency (T-RL orientation) vs wild-type transposon end (log2 (normalized fold change)); transposon end mutated: right end (5 bp flank + 75 bp right end); higher = more efficient transposition
Summary of the method: (§1)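 Each barcoded pool, 1549 left-end or 1849 right-end transposon variants in a pUC57 mini-transposon donor, went into E. coli BL21(DE3) with a T7-driven effector plasmid (CRISPR array, tniQ-cas8-cas7-cas6, tnsA-tnsB-tnsC). Plates contained 0.1 mM IPTG and were held at 37°C for 18 h. Input plasmids and genomic integration junctions were PCR-amplified and read by Illumina sequencing, with two biological output replicates and four reference barcodes. Relative integration efficiency is the fold change of output over input barcode abundance, normalised to the reference barcodes and log-transformed.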

[2] = system: VchCAST RNA-guided transposition machinery (E. coli BL21(DE3) host, lacZ target); assay: relative integration efficiency (T-LR orientation) vs wild-type transposon end (log2 (normalized fold change)); transposon end mutated: right end (5 bp flank + 75 bp right end); higher = more efficient transposition
Summary of the method: as §1

## ACATTTGTTGATACAACCAAAAAATGATAATTACACCCATAAATTGATAATAATGACACCGAATTTAACTATAACGCTCTGATCATAGTCAGACCAACATTGCTACGACCCGTATTCGCACCGACAC
[1]
  relative integration efficiency (log2): -1.3 ± 0.18
[2]
  relative integration efficiency (log2): 2.17 ± 0.081

## ACATTTGTTGATACAACCATAAAATGATAATTACACCCATAAATTGATAATTATCACACCCATAAATTGATATTGCCTCTGTTTATGGCTAGCTCAGTCCTAGGTACAATGCTAGCCGCACCGACAC
[1]
  relative integration efficiency (log2): -0.0948 ± 0.31
[2]
  relative integration efficiency (log2): -0.0571 ± 0.23

## ACATTTGTTGATACAACCATAAAATGATAATTACAACCATATATTGATATCTCTCACAACCATATATTGATATCTCCTCTGATCATAGTCAGACCAACATTGCTACGACCCGTATTCGCACCGACAC
[1]
  relative integration efficiency (log2): -0.574 ± 0.17
[2]
  relative integration efficiency (log2): 0.0166 ± 0.61

## ACATTTGGGTCTACAACCATAAAATGATAATTACACCCATAAATTGATAATTATCACACCCATAAATTGATATTGCCTCTGATCATAGTCAGACCAACATTGCTACGACCCGTATTCGCACCGACAC
[1]
  relative integration efficiency (log2): -7.19 ± 1.1
[2]
  relative integration efficiency (log2): -4.93 ± 0.96

## ACATTTGTTGATACAACCATAAAATGATAATTACACCCATAAATTGATAATTCGACCACCCATAAATTGATATTGCCTCTGATCATAGTCAGACCAACATTGCTACGACCCGTATTCGCACCGACAC
[1]
  relative integration efficiency (log2): -0.541 ± 0.14
[2]
  relative integration efficiency (log2): 0.317 ± 0.33

## ACATTTGTTGATACAACCATAAAATGTATTAATCACCCATAAATTGTATTAATTCACACCCATAAATTGTATAACGCTCTGATCATAGTCAGACCAACATTGCTACGACCCGTATTCGCACCGACAC
[1]
  relative integration efficiency (log2): -4.24 ± 0.14
[2]
  relative integration efficiency (log2): -2.39 ± 0.35

## ACATTTGTTGATACAACCATAAAATGATAATTACACCCATAAATTGATAATTATCACCCATAAATTGATATTGCCTCTGATCATAGTCAGACCAACATTGCTACGACCCGTATTCGCACCGACACTG
[1]
  relative integration efficiency (log2): -0.448 ± 0.081
[2]
  relative integration efficiency (log2): 2.21 ± 0.045

## ACATTTGTTGATACAACCATAAAAGGATCATTACCCCCATAAATTGATAATTATCCCACCCAATTTAACTATAACGCTCTGATCATAGTCAGACCAACATTGCTACGACCCGTATTCGCACCGACAC
[1]
  relative integration efficiency (log2): -2.19 ± 0.29
[2]
  relative integration efficiency (log2): 0.912 ± 0.11

## ACATTTGTTGATACAACCATAAAATCATAATTACCCCCATAAATTGATAATTATCACACCCAATTTAACTATAACGCTCTGATCATAGTCAGACCAACATTGCTACGACCCGTATTCGCACCGACAC
[1]
  relative integration efficiency (log2): -3.09 ± 0.33
[2]
  relative integration efficiency (log2): 0.699 ± 0.11

## ACATTTGTTGATACAACCATAAAATGATAATAACACCCATAAAATGATAATTATCACACCCAATTTAACTATAACGCTCTGATCATAGTCAGACCAACATTGCTACGACCCGTATTCGCACCGACAC
[1]
  relative integration efficiency (log2): -0.0962 ± 0.22
[2]
  relative integration efficiency (log2): 3.211 ± 0.011

## ACATTTGGTGATACAACCATATAATGATAATAACACCCATAAAATGATAATTATCACACCCAATTTAACTATAACGCTCTGATCATAGTCAGACCAACATTGCTACGACCCGTATTCGCACCGACAC
[1]
  relative integration efficiency (log2): -6.35 ± 0.32
[2]
  relative integration efficiency (log2): -3.69 ± 0.97

## ACATTTGTTGATACAACCATAAAATGATAATTACACCCAGCCCTTGATAATTATCACACCCATAAATTGATATTGCCTCTGATCATAGTCAGACCAACATTGCTACGACCCGTATTCGCACCGACAC
[1]
  relative integration efficiency (log2): -1.99 ± 0.04
[2]
  relative integration efficiency (log2): -2.1 ± 0.29

## ACATTTGTGTCGACAACCATAAAATGATAATTACACCCATAAATTGATAATTATCACACCCATAAATTGATATTGCCTCTGATCATAGTCAGACCAACATTGCTACGACCCGTATTCGCACCGACAC
[1]
  relative integration efficiency (log2): -0.916 ± 0.027
[2]
  relative integration efficiency (log2): -2.89 ± 0.57

## ACATTTGTTGATACAACCATAAAATGATAATTACAACCATAAAGTGATATTTATCACAACCATATATTGATATCTCCTCTGATCATAGTCAGACCAACATTGCTACGACCCGTATTCGCACCGACAC
[1]
  relative integration efficiency (log2): -0.331 ± 0.17
[2]
  relative integration efficiency (log2): -0.276 ± 0.022

## ACATTTGTTGATTGAACCATAAAATGATAATTACACCCATAAATTGATAATTATCACACCCATAAATTGATATTGCCTCTGATCATAGTCAGACCAACATTGCTACGACCCGTATTCGCACCGACAC
[1]
  relative integration efficiency (log2): -0.172 ± 0.032
[2]
  relative integration efficiency (log2): -1.4 ± 0.71

## ACATTTGTTGATACACCCATAAATTGATATTGCCACCCATAAATTGATAATTATCAGTGGGTATTTAACTATAACGCTCTGATCATAGTCAGACCAACATTGCTACGACCCGTATTCGCACCGACAC
[1]
  relative integration efficiency (log2): -1.42 ± 0.14
[2]
  relative integration efficiency (log2): 2.03 ± 0.071

## ACATTTGTTGATACAACCATAAAACGATAATTACACCCATAAATTGATCATTATCACACCCAATTTAACTATAACGCTCTGATCATAGTCAGACCAACATTGCTACGACCCGTATTCGCACCGACAC
[1]
  relative integration efficiency (log2): -1.68 ± 0.16
[2]
  relative integration efficiency (log2): 1.86 ± 0.099

## ACATTTGTTGATACAACCATAAAATGATAATTAATAATTATTTATAATCAGCAACTTAACCACCACCCATAAATTGATAATTATCAACAAACGCCCGGTCGCGGTACTCTGATCATAGTCAGACCAA
[1]
  relative integration efficiency (log2): -3.21 ± 0.38
[2]
  relative integration efficiency (log2): 0.423 ± 1.1
